T1: hPF4/heparin complex (human, UniProt P02776 32-101)
T1 construct: hPF4 (10 micrograms per milliliter) complexed with heparin (0.2 Units/milliliter in the standard ELISA); heparin is a glycosaminoglycan and not a protein chain; also called P/H
T1 sequence (looked up): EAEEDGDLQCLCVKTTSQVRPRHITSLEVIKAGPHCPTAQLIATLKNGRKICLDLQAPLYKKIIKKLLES

T2: hNAP-2 complexed to heparin (human, UniProt P02775 59-128)
T2 construct: mature; Complexed to heparin in the ELISA; NAP-2 is its C-terminal product
T2 sequence (looked up): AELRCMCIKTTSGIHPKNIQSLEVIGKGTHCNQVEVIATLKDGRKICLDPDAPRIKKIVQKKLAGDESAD

T3: hIL-8 complexed to heparin (human, UniProt P10145 21-99)
T3 construct: mature; Complexed to heparin in the ELISA
T3 sequence (looked up): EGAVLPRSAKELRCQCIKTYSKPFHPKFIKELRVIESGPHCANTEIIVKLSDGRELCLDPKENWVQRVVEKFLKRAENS

T4: murine PF4 complexed to heparin (murine, UniProt Q9Z126 30-105)
T4 construct: mature; Complexed to heparin in the ELISA; also called mPF4; mouse PF4
T4 sequence (looked up): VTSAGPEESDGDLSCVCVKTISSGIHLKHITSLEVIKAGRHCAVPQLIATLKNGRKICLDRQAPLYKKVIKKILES


Columns and labels:
[1] = target: platelet Fc-gamma RIIA (human) (UniProt P12318); assay: cell-based or functional assay
Sequence of platelet Fc-gamma RIIA (human) (P12318 34-317, form in doubt): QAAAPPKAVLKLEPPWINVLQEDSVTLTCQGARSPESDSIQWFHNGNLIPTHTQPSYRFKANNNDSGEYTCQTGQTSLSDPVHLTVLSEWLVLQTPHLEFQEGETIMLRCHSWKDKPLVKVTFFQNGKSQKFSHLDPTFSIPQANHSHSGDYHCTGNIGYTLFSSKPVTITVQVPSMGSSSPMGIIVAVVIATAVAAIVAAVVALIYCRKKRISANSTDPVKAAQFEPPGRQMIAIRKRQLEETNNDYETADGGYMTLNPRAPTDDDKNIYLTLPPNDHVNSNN

hPF4/heparin complex [2] = target: T1, hPF4/heparin complex; assay: ELISA, wells coated with hPF4/heparin
Method: (§1) The binding of antibody to either PF4, PF4 variants, PF4 bound to various GAGs or other chemokines complexed to heparin, was measured using an ELISA-based method as previously described (Arepally et al., 1995, Am. J. Clin. Pathol. 104:648). Briefly, to screen hybridoma culture supematants, 96-well microtiter plates were coated overnight at room temperature with 50 micoliters per well of phosphate buffered saline (PBS) containing PF4 (final concentration 10 micrograms per milliliter) in the presence or absence of heparin (0.2 Units/milliliter). The plates were then washed three times with TBS/0.01% Tween-20, blocked with 10% fetal calf serum (FCS) (200 microliters per well) in PBS for 2 hours at room temperature, and washed once more. Culture supernatant was added (50 microliters per well) for 1 hour at room temperature. […] The binding of KKO to PF4 and related chemokines and the binding of KKO to PF4 bound to various GAGs, was measured in the same manner, except that an incubation volume of 100 microliters per well was used.
(§2) The relative specificity of KKO was determined by adding various dilutions of KKO to wells coated with hPF4/heparin complex or hPF4 alone. […] At concentrations less than 0.14 micrograms per milliliter, the ratio of binding of KKO to PF4/heparin complex vs. binding to PF4 alone as determined by A₄₀₅ was greater than 400. […]

[3] = target: T2, hNAP-2 complexed to heparin; assay: ELISA, chemokine complexed to heparin
Method: as §1, with “temperature. Non-bound antibody was removed by washing, and 50 microliters per well of alkaline-phosphatase conjugated goat anti-mouse IgG, diluted 1:1000 in 10% FCS/PBS was added for 1 hour at room temperature.” for “temperature.”

[4] = target: T3, hIL-8 complexed to heparin; assay: ELISA, chemokine complexed to heparin
Method: as §1, with “temperature. Non-bound antibody was removed by washing, and 50 microliters per well of alkaline-phosphatase conjugated goat anti-mouse IgG, diluted 1:1000 in 10% FCS/PBS was added for 1 hour at room temperature.” for “temperature.”

hPF4/heparin complex [5] = target: T1, hPF4/heparin complex; assay: ELISA, wells coated with hPF4/heparin or hPF4 alone
Method: as §1, with “temperature. Non-bound antibody was removed by washing, and 50 microliters per well of alkaline-phosphatase conjugated goat anti-mouse IgG, diluted 1:1000 in 10% FCS/PBS was added for 1 hour at room temperature.” for “temperature.”

hPF4/heparin complex [6] = target: T1, hPF4/heparin complex; assay: ELISA, KKO at concentrations less than 0.14 micrograms per milliliter
Method: as §1, §2

[7] = target: T4, murine PF4 complexed to heparin; assay: ELISA, mPF4 complexed to heparin
Method: as §1, with “temperature. Non-bound antibody was removed by washing, and 50 microliters per well of alkaline-phosphatase conjugated goat anti-mouse IgG, diluted 1:1000 in 10% FCS/PBS was added for 1 hour at room temperature.” for “temperature.”

14C-serotonin release induced by KKO [1] [% release]	EC50 (hPF4/heparin complex [2]) [µg/mL]	binding result [3]	binding result [4]	A405 ratio to hPF4/heparin complex versus hPF4 alone (hPF4/heparin complex [5]) [ratio]	ratio of binding to PF4/heparin complex vs. binding to PF4 alone (A405) (hPF4/heparin complex [6]) [ratio]	binding result [7]	Molecule
< 5							Fc-gamma RIIA blocking antibody mAb IV.3
	0.036	no binding	no binding	> 30	> 400	no binding	murine monoclonal antibody KKO (antibody, V domains shown, Murine IgG2b kappa purified from ascites) VH: EVQLQQSGAELVKPGASVKLSCKASGYTFTNYFIYWVKQRPGQGLEWIGEINPRNGDTDFNEKFESRATLTVDKSSSTAYMQLSSLTSEDSAIYYCTRSPYGNNYGFTYWGQGTLVTVSA VL: DIQMIQSQKFMSTSVGDRVTVTCKASQNVGTNVAWYQQKPGQSPNALIYSASYRYSGVPDRFTGSGSGTDFTLTITNVQSEDLADYFCQQYNSYPLTFGTGTKLEIK
